Experiments:
MMP-2 = target: T1, MMP-2 (Homo sapiens, UniProt P08253); experiment: Cross-reactivity of anti-MMP-14 IgGs, enzymatic activity: MMP-2; format: biochemical; conditions: 1 μM anti-MMP-14 IgG
T1 sequence (P08253 110-660): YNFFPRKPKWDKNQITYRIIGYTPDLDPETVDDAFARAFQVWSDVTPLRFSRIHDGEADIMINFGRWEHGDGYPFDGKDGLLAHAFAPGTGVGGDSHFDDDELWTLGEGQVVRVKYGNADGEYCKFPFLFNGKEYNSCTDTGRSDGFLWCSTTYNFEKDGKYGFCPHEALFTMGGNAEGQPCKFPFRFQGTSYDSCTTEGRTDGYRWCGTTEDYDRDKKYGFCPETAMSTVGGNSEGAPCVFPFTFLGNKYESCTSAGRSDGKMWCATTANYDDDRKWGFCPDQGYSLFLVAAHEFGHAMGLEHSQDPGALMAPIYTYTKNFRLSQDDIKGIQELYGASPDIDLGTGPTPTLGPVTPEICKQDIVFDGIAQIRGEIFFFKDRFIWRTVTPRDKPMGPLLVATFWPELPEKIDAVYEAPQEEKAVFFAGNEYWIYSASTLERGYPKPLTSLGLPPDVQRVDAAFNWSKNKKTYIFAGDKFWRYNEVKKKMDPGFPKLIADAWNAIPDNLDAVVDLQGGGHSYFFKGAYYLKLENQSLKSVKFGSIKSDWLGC
Method: (§1) The cross-reactivity of exemplary anti-MMP-14 IgGs and Fabs with other human MMPs and TACE (TNF-alpha converting enzyme) was examined. MMP and TACE enzymatic activity was monitored in the absence and presence of 1 μM anti-MMP-14 IgG antibody. Inhibition (Y) of activity ranged from approximately 50-80% of the reaction rate observed in the absence of antibody. “X” indicates no inhibition was observed. Cross-reactivity was not determined for MMP-17 because protein activity could not be detected.
(§2) For the studies summarized in Table 12, six anti-MMP-14 IgGs were selected for cross-reactivity testings: M0043-G02, M0040-A06, M0037-D01, M037-C09, M0038-F01, M0033-H07.

MMP-7 = target: T2, MMP-7 (Homo sapiens, UniProt P09237); experiment: Cross-reactivity of anti-MMP-14 IgGs, enzymatic activity: MMP-7; format: biochemical; conditions: 1 μM anti-MMP-14 IgG
T2 sequence (P09237 95-267): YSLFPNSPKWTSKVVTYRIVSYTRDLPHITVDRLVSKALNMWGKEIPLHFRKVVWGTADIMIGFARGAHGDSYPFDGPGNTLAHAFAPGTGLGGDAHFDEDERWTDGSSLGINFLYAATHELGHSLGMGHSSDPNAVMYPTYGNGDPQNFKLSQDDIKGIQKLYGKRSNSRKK
Method: as §1, §2

MMP-9 = MMP-9 (Homo sapiens, UniProt P14780); experiment: Cross-reactivity of anti-MMP-14 IgGs, enzymatic activity: MMP-9; format: biochemical; conditions: 1 μM anti-MMP-14 IgG
Chain of MMP-9 (P14780 94-707): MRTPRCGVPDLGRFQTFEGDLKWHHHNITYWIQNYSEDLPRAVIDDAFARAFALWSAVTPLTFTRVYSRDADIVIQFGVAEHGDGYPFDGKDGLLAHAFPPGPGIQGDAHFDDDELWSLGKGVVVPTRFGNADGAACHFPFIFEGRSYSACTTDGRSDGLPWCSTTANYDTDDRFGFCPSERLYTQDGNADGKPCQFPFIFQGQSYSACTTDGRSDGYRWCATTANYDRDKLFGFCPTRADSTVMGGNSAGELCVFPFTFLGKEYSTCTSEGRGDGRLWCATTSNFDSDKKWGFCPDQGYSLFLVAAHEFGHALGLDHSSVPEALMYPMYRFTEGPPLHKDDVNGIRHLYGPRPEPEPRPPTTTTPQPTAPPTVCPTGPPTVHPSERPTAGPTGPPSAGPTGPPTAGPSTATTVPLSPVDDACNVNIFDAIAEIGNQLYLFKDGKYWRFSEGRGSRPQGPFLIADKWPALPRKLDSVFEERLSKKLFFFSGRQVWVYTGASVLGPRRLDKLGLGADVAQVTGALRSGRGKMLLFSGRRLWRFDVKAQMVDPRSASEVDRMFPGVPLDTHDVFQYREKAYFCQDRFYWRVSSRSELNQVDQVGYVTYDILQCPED
Method: as §1, §2

MMP-12 = MMP-12 (Homo sapiens, UniProt P39900); experiment: Cross-reactivity of anti-MMP-14 IgGs, enzymatic activity: MMP-12; format: biochemical; conditions: 1 μM anti-MMP-14 IgG
Chain of MMP-12 (P39900 106-470): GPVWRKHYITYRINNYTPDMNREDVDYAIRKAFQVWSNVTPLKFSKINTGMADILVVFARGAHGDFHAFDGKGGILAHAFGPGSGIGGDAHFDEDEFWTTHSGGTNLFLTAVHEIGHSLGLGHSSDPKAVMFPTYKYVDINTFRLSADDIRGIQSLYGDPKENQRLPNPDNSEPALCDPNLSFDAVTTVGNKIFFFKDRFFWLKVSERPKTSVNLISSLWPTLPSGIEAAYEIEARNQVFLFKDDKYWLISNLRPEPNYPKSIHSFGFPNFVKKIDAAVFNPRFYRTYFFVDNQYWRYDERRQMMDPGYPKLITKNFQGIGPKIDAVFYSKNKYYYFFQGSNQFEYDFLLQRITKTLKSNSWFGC
Method: as §1, §2

MMP-13 = MMP-13 (Homo sapiens, UniProt P45452); experiment: Cross-reactivity of anti-MMP-14 IgGs, enzymatic activity: MMP-13; format: biochemical; conditions: 1 μM anti-MMP-14 IgG
Method: as §1, §2

MMP-24 = MMP-24 (Homo sapiens, UniProt Q9Y5R2); experiment: Cross-reactivity of anti-MMP-14 IgGs, enzymatic activity: MMP-24; format: biochemical; conditions: 1 μM anti-MMP-14 IgG
Chain of MMP-24 (Q9Y5R2 156-645): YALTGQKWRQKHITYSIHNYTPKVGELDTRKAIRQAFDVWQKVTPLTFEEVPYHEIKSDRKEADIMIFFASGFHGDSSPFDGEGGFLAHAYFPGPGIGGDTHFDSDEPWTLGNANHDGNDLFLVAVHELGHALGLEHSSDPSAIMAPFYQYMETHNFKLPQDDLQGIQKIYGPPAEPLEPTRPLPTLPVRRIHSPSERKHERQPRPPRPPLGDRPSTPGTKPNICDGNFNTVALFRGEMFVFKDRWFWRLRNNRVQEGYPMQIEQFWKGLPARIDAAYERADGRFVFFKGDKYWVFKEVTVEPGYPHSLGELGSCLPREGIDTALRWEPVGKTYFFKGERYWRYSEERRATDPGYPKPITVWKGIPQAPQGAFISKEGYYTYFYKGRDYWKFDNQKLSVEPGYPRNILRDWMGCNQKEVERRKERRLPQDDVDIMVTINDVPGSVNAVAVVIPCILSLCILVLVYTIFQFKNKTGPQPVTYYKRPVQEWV
Method: as §1, §2

MMP-3 = MMP-3 (Homo sapiens, UniProt P08254); experiment: Cross-reactivity of anti-MMP-14 IgGs, enzymatic activity: MMP-3; format: biochemical; conditions: 1 μM anti-MMP-14 IgG
Chain of MMP-3 (P08254 100-477): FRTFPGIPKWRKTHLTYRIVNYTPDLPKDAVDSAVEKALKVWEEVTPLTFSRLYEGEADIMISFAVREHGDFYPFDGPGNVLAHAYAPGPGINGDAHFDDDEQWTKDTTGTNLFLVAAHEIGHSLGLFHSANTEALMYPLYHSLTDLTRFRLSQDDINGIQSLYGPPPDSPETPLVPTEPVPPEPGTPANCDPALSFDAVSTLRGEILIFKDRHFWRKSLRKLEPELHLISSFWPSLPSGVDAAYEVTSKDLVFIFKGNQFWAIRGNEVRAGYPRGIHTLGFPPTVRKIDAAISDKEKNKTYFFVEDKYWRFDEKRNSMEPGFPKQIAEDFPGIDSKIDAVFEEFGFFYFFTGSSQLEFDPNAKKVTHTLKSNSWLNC
Method: as §1, §2

[1] = system: Human umbilical vascular endothelium cells (HUVECs); experiment: HUVEC tube formation on […]; format: cell-based; conditions: 1 nM to 250 nM; 18 hours
Method: Human umbilical vascular endothelium cells (HUVECs) were seeded into […]™ basement membrane extract-coated 96 well plates at 20,000 or 40,000 cells in 100 μl/well. The seeded cells were incubated for 30 minutes, then the various test articles were added (vehicle control, M0038-F01 at concentrations ranging from 1 nM to 250 nM, or suramin 8 mg/ml). The cells were incubated at 37° for 18 hours. 100 μl of calcein solution (8 μg/ml) was added 20 minutes prior to image capture. Tube lengths were also quantified.

[2] = system: Streptococcus cell wall (SCW)-induced arthritis, knee joints; experiment: SCW-induced arthritis, joint swelling; format: in vivo, mouse; conditions: 2, 6 or 10 mg/kg IP at day 13, 16, 20 and 23; technecium uptake
Method: Antigen-induced arthritis, a model of rheumatoid arthritis, was induced by intraarticular injection of Streptococcus cell wall (SCW, […]) into the knee joints of C57B16 mice at day 0, 7, 14 and 21.
Mice were assorted into groups of six animals each and treated (by IP injection) with M0038-F01 (2, 6, or 10 mg/kg), a control isotype-matched antibody (control, 20 mg/ml), or etanercept (ENBREL®, 5 mg/ml) at day 13, 16, 20, and 23. Joint swelling (measured by technecium uptake) was measured at day 15, 16, 22, 23 and 28.

[3] = system: activation of pro-MMP-2 by MMP-14 in PMA-activated HT-1080 cells; experiment: Gelatin zymogram, pro-MMP-2 activation in HT-1080 cells; format: cell-based, human; conditions: gelatin zymography of conditioned media after 3 days; antibodies 10 μg/ml, GM6001 10 μM
Method: The ability of anti-MMP-14 IgGs to inhibit the activation of pro-MMP-2 by MMP-14 was examined by gelatin zymogram experiments performed with PMA-activated HT-1080 cells. M0033-H07 and M0038-F01 were tested for their ability to inhibit MMP-14 in this assay. HT1080 cells (well-known to express MMP-14 and MMP-2) were seeded at 5×10^5 cells/well at Day 0. […] HT-1080 cells cultured in the presence of 20 ng/ml of PMA were used as a positive control.
After 3 days of incubation, conditioned media were collected and gelatinolytic activities were analyzed by gelatin zymography as described previously (Maquoi et al, J Biol Chem 2000; 275:11368-78). When HT-1080 cells are activated with a phorbol ester, pro-MMP-2 is activated into MMP-2 (lane 1).

MDA-MB-231-GFP tumors = experiment: MDA-MB-231-GFP orthotopic breast tumor growth and metastasis
Method: Human breast cancer cells MDA-MB-231 cells transfected with green fluorescent protein (MDA-MB-231-GFP) were inoculated into the mammary fat pad of female BALB/c nu/nu mice with Matrigel. Animals were monitored for tumor growth, and at week 4-5 post tumor cell inoculation, animals with tumors of 30-50 mm^3 were selected, randomized and divided into experimental groups. […] Tumor volume was measured weekly, starting at week 5. Additionally, tissue samples of lung, liver, and spleen were taken to assess metastasis.
Animals were inoculated with MDA-MB-231-GFP cells as described above, then selected and randomized, and divided into experimental groups of 8 animals each. […] Tumor volume was measured weekly, starting at week 5.
Tumor tissue samples were collected on day 35 post-treatment for immunohistochemical analysis. Paraffin-embedded tissue samples were sectioned, stained with CD31 (Santa Cruz Biotechnology Inc., Santa Cruz, Calif., USA), Ki-67 (DAKO, Carpinteria, Calif., USA), MAPK, FAK, phosphoMAPK or phosphoFAK antibodies, visualized with biotinylated secondary antibodies using a VECTASTAIN® ABC (Vector Laboratories Inc., Burlingame, Calif., USA), and lightly counterstained with haemotoxylin.

PC3 prostate tumors = experiment: PC3 prostate tumor growth; format: in vivo, mouse; conditions: M0038-F01 10, 1 or 0.1 mg/kg Q2d IP; taxotere 10 mg/kg weekly IP; A2 10 mg/kg Q2d
Description: PC3 prostate cancer cells were implanted into male nude mice by subcutaneous injection.

[4] = immunostaining of tumor tissue, day 35

B1: M0040-A06: human antibody (Fab, IgG) that binds and inhibits MMP-14; HC SEQ ID NO: 162, LC SEQ ID NO: 163 (antibody, V domains shown)
VH: EVQLLESGGGLVQPGGSLRLSCAASGFTFSYYGMYWVRQAPGKGLEWVSSISSSGGYTDYADSVKGRFTISRDNSKNTLYLQMNSLRAEDTAVYYCARRIKYYDIEGEGAFDIWGQGTMVTVSS
VL: QDIVMTQTPPSLPVNPGEPASISCRSSQSLLHRNGYNYLDWYLQKPGQSPQLLIHLGSYRASGVPDRFSGSGSGTDFTLKISRVEAEDVGVYYCMQPLQTPFTFGPGTKVDIK
modifications: Synthetically generated peptide
Q: How did the “Cross reactivity: inhibition of MMP-2 activity” value (MMP-2) turn out when B1 was run?
A: Y (Inhibition (Y) of activity ranged from approximately 50-80% of the reaction rate observed in the absence of antibody)

Q: And the “Cross reactivity: inhibition of MMP-7 activity” value (MMP-7)?
A: Y (Inhibition (Y) of activity ranged from approximately 50-80% of the reaction rate observed in the absence of antibody)

Q: What about the “Cross reactivity: inhibition of MMP-9 activity” value (MMP-9) of the same molecule?
A: Y (Inhibition (Y) of activity ranged from approximately 50-80% of the reaction rate observed in the absence of antibody)

Q: And the “Cross reactivity: inhibition of MMP-12 activity” value (MMP-12)?
A: Y (Inhibition (Y) of activity ranged from approximately 50-80% of the reaction rate observed in the absence of antibody)

Q: What about the “Cross reactivity: inhibition of MMP-13 activity” value (MMP-13) of the same molecule?
A: Y (Inhibition (Y) of activity ranged from approximately 50-80% of the reaction rate observed in the absence of antibody)

Q: And the “Cross reactivity: inhibition of MMP-24 activity” value (MMP-24)?
A: Y (Inhibition (Y) of activity ranged from approximately 50-80% of the reaction rate observed in the absence of antibody)

Q: What about the “Cross reactivity: inhibition of MMP-3 activity” value (MMP-3) of the same molecule?
A: Y (Inhibition (Y) of activity ranged from approximately 50-80% of the reaction rate observed in the absence of antibody)

B2: M0043-G02: human antibody (Fab, IgG) that binds and inhibits MMP-14; HC SEQ ID NO: 166, LC SEQ ID NO: 167 (antibody, V domains shown)
VH: EVQLLESGGGLVQPGGSLRLSCAASGFTFSWYPMFWVRQAPGKGLEWVSGIYSSGGPTDYADSVKGRFTISRDNSKNTLYLQMNSLRAEDTAVYYCAKDTLGRYYDFWSGYSYGMDVWGQGTTVTVSS
VL: QDIQMTQSPGTLSLSPGERATLSCRASQSVSSSYLAWYQQKPGQAPRLLIYGASSRATGIPDRFSGSGSGTDFTLTISRLEPEDFAVYYCQSGVTFGGGTKVEIK
modifications: Synthetically generated peptide
Q: What does the source list for B2?
A: Cross reactivity: inhibition of MMP-2 activity (MMP-2): Y (Inhibition (Y) of activity ranged from approximately 50-80% of the reaction rate observed in the absence of antibody); Cross reactivity: inhibition of MMP-9 activity (MMP-9): Y (Inhibition (Y) of activity ranged from approximately 50-80% of the reaction rate observed in the absence of antibody); Cross reactivity: inhibition of MMP-12 activity (MMP-12): Y (Inhibition (Y) of activity ranged from approximately 50-80% of the reaction rate observed in the absence of antibody); Cross reactivity: inhibition of MMP-13 activity (MMP-13): Y (Inhibition (Y) of activity ranged from approximately 50-80% of the reaction rate observed in the absence of antibody); Cross reactivity: inhibition of MMP-24 activity (MMP-24): Y (Inhibition (Y) of activity ranged from approximately 50-80% of the reaction rate observed in the absence of antibody)

B3: M0038-F01: human antibody (Fab, IgG) that binds and inhibits MMP-14; HC SEQ ID NO: 156, LC SEQ ID NO: 157 (antibody, V domains shown)
VH: EVQLLESGGGLVQPGGSLRLSCAASGFTFSLYSMNWVRQAPGKGLEWVSSIYSSGGSTLYADSVKGRFTISRDNSKNTLYLQMNSLRAEDTAVYYCARGRAFDIWGQGTMVTVSS
VL: QDIQMTQSPSSLSAFVGDKVTITCRASQSVGTYLNWYQQKAGKAPELLIYATSNLRSGVPSRFSGSGSGTDFTLTINTLQPEDFATYYCQQSYSIPRFTFGPGTKVDIK
modifications: Synthetically generated peptide
Q: Which results are given for B3?
A: tube formation [1]: dose-dependently inhibits tube formation; joint swelling [2]: did not have an effect; pro-MMP-2 activation by MMP-14 [3]: completely inhibits; pro-MMP-9 expression [3]: No stimulation; metastases to spleen (MDA-MB-231-GFP tumors; M0038-F01 10 mg/kg Q2d IP, DOX 5 mg/kg weekly IP): reduced in DOX and M0038-F01 treated animals, but the difference was not statistically significant; lung and liver metastases (MDA-MB-231-GFP tumors; M0038-F01 10 mg/kg Q2d IP, DOX 5 mg/kg weekly IP, compared to controls): statistically significant reduction; tumor growth (tumor volume), dose-ranging experiment (MDA-MB-231-GFP tumors; M0038-F01 0.1, 1 or 10 mg/kg Q2d IP for 5 weeks, A2 10 mg/kg): reduced in all M0038-F01 treated animals, with the 10 mg/kg dose being most effective, followed by the 1 mg/kg and 0.1 mg/kg doses; tumor growth (tumor volume) (MDA-MB-231-GFP tumors; M0038-F01 or A2 10 mg/kg Q2d IP, DOX 5 mg/kg weekly IP, five weeks): substantially inhibited; CD31 and KI67 levels compared to vehicle and A2 controls (MDA-MB-231-GFP tumors; [4]): statistically significant (p<0.05) reductions; phospho-FAK level (MDA-MB-231-GFP tumors; [4]): 4±1.2 A.U.; phospho-MAP kinase level (MDA-MB-231-GFP tumors; [4]): 2.4±0.7 A.U.; total MAP kinase and FAK levels (MDA-MB-231-GFP tumors; immunostaining of tumor tissue, day 35, versus control tumors): essentially the same as in control tumors; Ki67 (MDA-MB-231-GFP tumors; immunostaining of tumor tissue, day 35 post-treatment, image analysis): 2.4 ± 1.2; tumor growth (tumor volume) (PC3 prostate tumors): reduced in all M0038-F01 treated animals, with the 10 mg/kg dose being most effective, followed by the 1 mg/kg and 0.1 mg/kg doses

— patent US8106168B2, “Metalloproteinase binding proteins” (Dyax Corp., priority 2005, dated 2012)
